Data reported in patent publication US20150079112A1 (SAMSUNG ELECTRONICS, published 2015).

Columns and labels:
Experiment in all cases: ELISA, coated antibody 1000 nM, 250 ng FLAG-tagged mutant Ang2, anti-FLAG-HRP, OD450
[1] = biological target: T1, mutant Ang2 protein, D448 substituted with alanine, FLAG-tagged at its N-terminal (human, UniProt O15123 19-496, limits assumed)
T1 sequence: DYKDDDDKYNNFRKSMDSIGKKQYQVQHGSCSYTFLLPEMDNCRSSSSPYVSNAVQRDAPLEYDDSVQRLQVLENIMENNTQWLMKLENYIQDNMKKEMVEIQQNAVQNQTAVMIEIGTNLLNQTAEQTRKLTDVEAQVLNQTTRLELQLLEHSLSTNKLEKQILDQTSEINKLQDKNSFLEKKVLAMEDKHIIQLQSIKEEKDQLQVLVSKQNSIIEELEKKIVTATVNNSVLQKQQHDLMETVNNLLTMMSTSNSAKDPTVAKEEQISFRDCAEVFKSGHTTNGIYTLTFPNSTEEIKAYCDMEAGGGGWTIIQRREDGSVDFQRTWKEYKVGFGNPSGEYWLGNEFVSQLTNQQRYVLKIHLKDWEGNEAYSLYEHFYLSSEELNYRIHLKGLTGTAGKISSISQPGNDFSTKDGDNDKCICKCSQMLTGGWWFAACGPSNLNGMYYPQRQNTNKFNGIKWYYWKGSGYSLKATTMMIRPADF
Protocol: (§1) Each well of a 96-well MaxiSorp™ flat-bottom plate (Nunc) was coated with 50 ul (microliter) of 1000 nM antibody. Then, the plate was washed five times with 0.05% (v/v) Tween-20-containing PBS (PBST) and blocked with 1% (v/v) BSA-containing PBS at a room temperature for 2 hours. 250 ng of each mutant Ang2 protein obtained by substituting S417, Q418, P419, N421, I434, D448, A449, P452, Y460, N467, K468, or F469 residue of Ang2 protein tagged with a FLAG sequence ([…], Sigma) at its N-terminal with alanine was added to each well of the plate, which was then allowed to react at a room temperature for 2 hours.
(§2) The plate was washed five times with 0.05% (v/v) Tween-20 containing PBS, reacted with an anti-FLAG antibody (SIGMA) conjugated with HRP which was diluted in 1% (v/v) BSA-containing PBS at a ratio of 1:5,000 (v/v) at a room temperature for 1 hour, and washed five times with 0.1% (v/v) Tween-20-containing PBS.
(§3) Finally, 50 ul of TMB substrates (Cell signaling) was added to each well of the plate to induce color development at a room temperature for 3 min. and the reaction was ceased by the addition of 50 ul of Stop solution (Cell signaling) and then, OD450 values were measured on a plate reader (Molecular Devices). By comparing binding affinities with mutated Ang2 to those of unmutated Ang2, each epitope of Ang2 antibodies was identified. The thus obtained measurement results of the binding affinities (%) with mutant Ang2 against the binding affinity with the native Ang2 are shown in the following Table 8.

[2] = biological target: T2, mutant Ang2 protein, Y460 substituted with alanine, FLAG-tagged at its N-terminal (human, UniProt O15123 19-496, limits assumed)
T2 sequence: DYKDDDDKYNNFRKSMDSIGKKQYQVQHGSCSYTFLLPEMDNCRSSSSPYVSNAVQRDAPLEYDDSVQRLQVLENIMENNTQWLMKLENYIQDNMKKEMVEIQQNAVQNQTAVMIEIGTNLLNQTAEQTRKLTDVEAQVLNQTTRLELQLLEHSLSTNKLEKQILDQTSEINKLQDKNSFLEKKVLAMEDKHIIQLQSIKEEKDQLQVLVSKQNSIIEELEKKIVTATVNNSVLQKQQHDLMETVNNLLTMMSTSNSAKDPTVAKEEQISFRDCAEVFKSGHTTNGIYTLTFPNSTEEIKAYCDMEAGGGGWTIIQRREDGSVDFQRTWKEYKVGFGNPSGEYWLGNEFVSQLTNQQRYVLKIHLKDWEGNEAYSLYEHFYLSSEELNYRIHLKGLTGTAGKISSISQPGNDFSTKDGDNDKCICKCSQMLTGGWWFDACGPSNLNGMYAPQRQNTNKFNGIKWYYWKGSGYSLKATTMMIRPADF
Protocol: as §1, §2, §3

[3] = biological target: T3, mutant Ang2 protein, P452 substituted with alanine, FLAG-tagged at its N-terminal (human, UniProt O15123 19-496, limits assumed)
T3 sequence: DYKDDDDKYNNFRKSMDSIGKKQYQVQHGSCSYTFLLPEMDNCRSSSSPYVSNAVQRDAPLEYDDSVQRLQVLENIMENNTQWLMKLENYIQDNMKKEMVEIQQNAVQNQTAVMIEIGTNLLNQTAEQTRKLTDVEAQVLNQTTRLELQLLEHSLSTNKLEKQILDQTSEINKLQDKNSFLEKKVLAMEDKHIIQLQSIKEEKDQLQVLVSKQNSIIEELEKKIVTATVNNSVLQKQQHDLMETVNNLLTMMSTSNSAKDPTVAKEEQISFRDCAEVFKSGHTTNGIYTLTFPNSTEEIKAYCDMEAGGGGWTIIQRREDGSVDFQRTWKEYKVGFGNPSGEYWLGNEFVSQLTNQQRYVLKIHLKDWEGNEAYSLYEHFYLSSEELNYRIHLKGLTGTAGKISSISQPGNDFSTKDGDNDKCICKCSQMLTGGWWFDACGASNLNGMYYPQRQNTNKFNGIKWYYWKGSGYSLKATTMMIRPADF
Protocol: as §1, §2, §3

[4] = biological target: T4, mutant Ang2 protein, Q418 substituted with alanine, FLAG-tagged at its N-terminal (human, UniProt O15123 19-496, limits assumed)
T4 sequence: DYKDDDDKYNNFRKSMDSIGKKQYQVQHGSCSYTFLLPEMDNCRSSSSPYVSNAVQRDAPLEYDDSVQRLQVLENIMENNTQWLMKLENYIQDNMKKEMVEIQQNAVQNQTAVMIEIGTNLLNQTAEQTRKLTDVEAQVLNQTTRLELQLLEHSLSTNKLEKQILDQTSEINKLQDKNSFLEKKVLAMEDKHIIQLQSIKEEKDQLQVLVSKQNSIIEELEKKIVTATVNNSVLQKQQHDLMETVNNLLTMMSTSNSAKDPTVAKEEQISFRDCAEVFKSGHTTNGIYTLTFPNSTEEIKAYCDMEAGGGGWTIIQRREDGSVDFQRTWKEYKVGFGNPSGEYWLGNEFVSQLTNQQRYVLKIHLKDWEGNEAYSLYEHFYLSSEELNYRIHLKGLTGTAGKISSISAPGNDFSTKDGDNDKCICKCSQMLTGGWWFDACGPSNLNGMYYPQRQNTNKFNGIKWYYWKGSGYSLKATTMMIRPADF
Protocol: as §1, §2, §3

B1: SAIT-ANG2-AB-m10D6 (antibody, V domains shown)
VH: DVQLQESGPGLVKPSQSLSLTCTVTGYSITSDYAWNWIRQFPGNKLEWMGYINYSGNTDYNPSLKSRSSITRDTSKNQFFLQLNSVTTGDTATYYCARGNFEGAMDYWGQGTSVTVSS
VL: SIVMTQTPKFLLVSAGDRVTITCKASQSVSNDVAWYQQKPGQSPKLLIYYASNRYPGVPDRFTGSGYGTDFTFTISTVQAEDLAVYFCQQDYSSPWTFGGGTKLEIK
notes: also called antibody 10D6; anti-Ang2 antibody (10D6)
**Q.** Which “binding affinity (%) with mutant Ang2 against the binding affinity with the native Ang2” value (shortened to “binding affinity (%) with mutant Ang2”) [1] does the source give for B1 here?
**A.** 105%

**Q.** What about the “binding affinity (%) with mutant Ang2” value [2] of the same binder?
**A.** 103%

**Q.** What about the “binding affinity (%) with mutant Ang2” value [3] of the same binder?
**A.** 102%

**Q.** What about the “binding affinity (%) with mutant Ang2” value [4] of the same binder?
**A.** 38.9%
